We go through one molecule from patent publication US20160326219A1, “OPTICALLY ACTIVATED RECEPTORS” (IST AUSTRIA (INSTITUTE OF SCIENCE AND TECHNOLOGY AUSTRIA), priority 2013, published 2016).

Assay [1] concerns hBE cells. The assay can be described thus: In vitro angiogenesis (sprouting) assay (hBE cells). The conditions noted are these: hBE cell spheroids, FIGS. 7b and c. The format is cell-based. As to the method:
For spheroid generation, hBE cells were suspended as hanging drops (450 cells in a 25 μl drop) in M199 medium (Sigma) supplemented with 10% FBS, L-glutamine, 2.2 g/I NaHCO3 and 20% methylcellulose (Sigma) over night in a standard tissue culture incubator. The following day, spheroids were washed in PBS containing 10% FBS, centrifuged, resuspended in Methocel/20% FBS, mixed (1:1) with neutralized rat-tail collagen and seeded into non-adhesive 24-well plates (Greiner Bio-one, Kremsmünster, Austria). After solidification of the collagen, VEGFA (30 ng/ml) or PD166866 (10 μM) were added. Plates were stimulated with light for 5 min every 20 min for 10 h or kept in the dark. After stimulation, 1 ml of 8% paraformaldehyde was added to each well and spheroids were photographed on the Nikon microscope. Cumulative sprout lengths per sphere from at least 8 spheroids per group were measured (ImageJ).

Assay [2] has as its system SPC212 cells. Kind of assay: Stimulation and Western blot (SPC212 cells). The conditions noted are these: ~3 μW/mm^2. The format is cell-based, human. The source says:
(§1) M38K and SPC212, two malignant pleural mesothelioma cell lines, were maintained in RPMI1640 supplemented with 10% FBS. Telomerase-immortalized microvascular hBE cells were maintained in Clonetics EGM2 MV endothelial growth medium (Lonza, Wakersville, Md.) supplemented with 5% FBS. For retrovirus generation, Opto-mFGFR1 or mCherry as control was subcloned into pQCXIP (Clontech, Mountain View, Calif.) using EcoRI and NotI restriction enzymes. Viral particles were generated in HEK293 cells by co-transfection with the helper plasmids pVSV-G and p-gag-pol-gpt. Supernatants were used to transduce M38K, SPC212 or hBE cells grown to 50% confluency in 6-well plates. Cells were selected with 0.8 μg/ml puromycin for 10 d and transgene expression was verified by immunoblotting.
For immunoblotting, 5×10^5 cells were seeded in each well of 6-well plates. After 24 h, medium was replaced with reduced serum medium (M38K, SPC212). After additional 20 h, cells were transferred to the stimulation incubator and illuminated for 1, 5 or 15 min or shielded from light. Cells were then either immediately or after additional 5, 15 or 30 min in the dark washed and lysed in 50 μl lysis buffer per well on ice. Lysates were sonicated and centrifuged (12000 g, 5 min, 4° C.). […] Chemiluminescence was developed with WesternC reagent (Biorad, Hercules, Calif.) and signals recorded on X-ray film (GE Healthcare).
(A western blot detects proteins with antibodies after separation by electrophoresis.)

Assay [3] concerns M38K cells. Kind of assay: All optical evaluation of pharmacological compounds / cell morphology, M38K cells stably expressing Opto-mFGFR1. As to conditions: M38K cells; blue light (Opto-mFGFR1) or added growth factor. In kind it is cell-based, human.
From the text: as §1
10^5 M38K cells were seeded in each well of 6-well plates. After 24 h, cells were stimulated for 1 h or kept in the dark. FGF2 (Sigma) or PD166866 (Pfizer Global Research and Development, New London, Conn.) were added as indicated. After additional 24 h, cells were photographed on the Nikon Ti300 microscope. For quantification of cell morphology, all cell perimeters in randomly selected sections of phase contrast images were traced and aspect ratios (defined as length of major axis divided by length of minor axis of a fitted ellipse) calculated with ImageJ software (National Institute of Health). Greater than 50 individual values contributed to each average.
For M38K cells, cell morphology was evaluated as described above but followed by automated image analysis. Phase contrast images (typically three images from two wells) were automatically analyzed. Images were converted to greyscale, resized and divided into segments for local threshold correction (threshold was defined as most probably intensity multiplied by a constant factor of 0.85; Igor Pro, Wavemetrics, Lake Oswego, Oreg.). Cells were identified and measured in FIJI/ImageJ (Max Planck Society/National Institutes of Health; size limit: 40 to 600 pixel̂2, circularity limit: 0.01 to 1.00). Occasionally, outliers were removed manually. Typically 200 to 1800 individual values contributed to the averages of FIG. 9. For HEK293 cells, MAPK pathway activation was measured using luciferase as described above.

Assay [4] relates to M38K cells. The assay can be described thus: Gene expression analysis, qPCR (M38K cells). The format is cell-based, human. The protocol: 5×10^4 M38K cells were seeded into each well of a 6-well plates. After 24 h, cells were illuminated with a cycle of 5 min light/15 min dark for 48 h. Control cells were kept in the dark. Total RNA was extracted with TRIZOL (LifeTechnologies) and reverse transcribed with MMLV reverse transcriptase (Thermo Scientific). cDNAs corresponding to 50 ng RNA per sample were subjected to SYBR green qPCR on an Abi Prism 7500 Sequence Detection System using published primers (cf. Sakuma, 2012; #2508). GAPDH was used for normalization and fold change of expression level was calculated as 2-ddCt of illuminated versus non-illuminated cells.
(In general: Quantitative PCR measures a nucleic acid by following its amplification.)

Assay [5] concerns mFGFR1-related signaling pathways. Kind of assay: Detection of additional signaling pathways, Cignal Reporter assays (HEK293 cells). In kind it is cell-based, human. The conditions noted are these: ~3 μW/mm^2, FIG. 3. As to the method: Activation of additional mFGFR1-related signaling pathways was assayed with Cignal Reporter assays (Qiagen, Hilden, Germany) consisting of mixtures of inducible pathway focused transcription factor-responsive firefly luciferase constructs and a constitutively expressing Renilla luciferase construct. Cells were transfected with 100.3 ng total DNA per well (receptor and reporter at ratio of 1:300) using Lipofectamine 2000 and thereafter treated as described above for detection of MAPK signaling. Cells were processed with the Dual-Glo® Luciferase Assay System (Promega) and signals detected with the microplate reader.

B1: Opto-mFGFR1: chimeric receptor of mFGFR1 intracellular domain and VfAU1-LOV, SEQ ID NO: 58 (protein)
chain: MGSSKSKPKDPSQRLDMKSGTKKSDFHSQMAVHKLAKSIPLRRQVTVSADSSASMNSGVLLVRPSRLSSSGTPMLAGVSEYELPEDPRWELPRDRLVLGKPLGEGCFGQVVLAEAIGLDKDKPNRVTKVAVKMLKSDATEKDLSDLISEMEMMKMIGKHKNIINLLGACTQDGPLYVIVEYASKGNLREYLQARRPPGLEYCYNPSHNPEEQLSSKDLVSCAYQVARGMEYLASKKCIHRDLAARNVLVTEDNVMKIADFGLARDIHHIDYYKKTTNGRLPVKWMAPEALFDRIYTHQSDVWSFGVLLWEIFTLGGSPYPGVPVEELFKLLKEGHRMDKPSNCTNELYMMMRDCWHAVPSQRPTFKQLVEDLDRIVALTSNQEYLDLSIPLDQYSPSFPDTRSSTCSSGEDSVFSHEPLPEEPCLPRHPTQLANSGLKRRVETGPDYSLVKALQMAQQNFVITDASLPDNPIVYASRGFLTLTGYSLDQILGRNCRFLQGPETDPRAVDKIRNAITKGVDTSVCLLNYRQDGTTFWNLFFVAGLRDSKGNIVNYVGVQSKVSEDYAKLLVNEQNIEYKGVRTSNMLRRKTGGSGVDYPYDVPDYALD
modifications: mFGFR1-VfAU1-LOV
Regarding B1, in assay [1], the “Morphological alterations (sprouting) upon blue light illumination” value is given as “induced morphological alterations”. Besides, the “Phosphorylation upon blue light stimulation” value in assay [2] is “rapid phosphorylation of Opto-mFGFR1 and ERK1/2 as well as AKT and phospholipase Cy (PLCy)”. The Cell morphology response entry in assay [3] was “EMT-like morphological alterations”. Also, in assay [4], the “Gene expression changes upon light stimulation” value is recorded as “EMT-like gene expression changes”. Further, the “Activation of additional pathways linked to mFGFR1 in response to blue light” value in assay [5] is on record as “activates”.
